Assay results taken from US20030180295A1, “Angiocidin: a Cys-Ser-Val-Thr-Cys-Gly specific tumor cell adhesion receptor” (Philadelphia Health and Education Corporation, priority 1999, published 2003).
One block for each substance: values may come before it. No end group written: not given here. *: point of attachment. Acm = CC(=O)NC*

Key:
[1] = biological target: T1, biotin-angiocidin complex binding to TSP-1 (Homo sapiens, UniProt P55036, INS254GER); assay: Biotin-avidin receptor binding assay: competition; conditions: for competition of biotin-angiocidin binding to TSP-1: Example 23, FIGS. 29 and 30; for peptide competition of TSP-1 receptor binding: Example 25, peptide 1 mg/ml, FIG. 32
T1 sequence (P55036 with tags, fused parts or gaps INS254GER): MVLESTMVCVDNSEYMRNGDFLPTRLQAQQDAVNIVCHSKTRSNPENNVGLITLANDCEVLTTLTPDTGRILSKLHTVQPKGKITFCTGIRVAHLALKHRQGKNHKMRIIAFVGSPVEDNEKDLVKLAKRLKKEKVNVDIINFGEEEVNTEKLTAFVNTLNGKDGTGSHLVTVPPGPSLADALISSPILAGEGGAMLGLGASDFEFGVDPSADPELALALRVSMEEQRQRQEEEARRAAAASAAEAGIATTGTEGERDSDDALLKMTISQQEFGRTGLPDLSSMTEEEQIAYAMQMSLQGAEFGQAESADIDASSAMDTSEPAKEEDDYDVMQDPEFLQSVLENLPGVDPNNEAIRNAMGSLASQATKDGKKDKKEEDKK
Experimental: In the following experiments, TSP-1 was covalently bound to a substrate, biotinylated angiocidin was added to the plate, and avidin-peroxidase was added to measure how much biotinylated angiocidin was attached to the TSP-1. The avidin-peroxidase was measured using a spectrophotometer at an absorbance of 450 nm.
Free angiocidin was added to the system to compete with the biotinylated angiocid in. […] Immobilized BSA was used as a negative control.
The TSP-1 peptide Cys-Ser-Val-Thr-Cys-Gly (SEQ ID NO: 1) was added to the system to compete with the TSP-1 on the plate for binding with the biotinylated angiocidin. The scrambled peptide Val-Cys-Thr-Gly-Ser-Cys (SEQ ID NO: 15) was used as a negative control and had no effect.
The avidin-biotin system discussed above was used to evaluate the competitive effect of various peptides on the binding of TSP-1 and angiocidin. […] The scrambled peptide Val-Cys-Thr-Gly-Ser-Cys-Gly (SEQ ID NO: 21) and the d-orientation peptide d-Cys-Ser-Val-Thr-Cys-Gly (SEQ ID NO: 22) were used as negative controls.

TSP-1 [2] = biological target: T2, TSP-1 (Homo sapiens, UniProt P07996); assay: Optical binding of angiocidin fragments to TSP-1 derivatized cuvette; conditions: test proteins at 10 nm in PBS buffer
T2 sequence (P07996 19-1170): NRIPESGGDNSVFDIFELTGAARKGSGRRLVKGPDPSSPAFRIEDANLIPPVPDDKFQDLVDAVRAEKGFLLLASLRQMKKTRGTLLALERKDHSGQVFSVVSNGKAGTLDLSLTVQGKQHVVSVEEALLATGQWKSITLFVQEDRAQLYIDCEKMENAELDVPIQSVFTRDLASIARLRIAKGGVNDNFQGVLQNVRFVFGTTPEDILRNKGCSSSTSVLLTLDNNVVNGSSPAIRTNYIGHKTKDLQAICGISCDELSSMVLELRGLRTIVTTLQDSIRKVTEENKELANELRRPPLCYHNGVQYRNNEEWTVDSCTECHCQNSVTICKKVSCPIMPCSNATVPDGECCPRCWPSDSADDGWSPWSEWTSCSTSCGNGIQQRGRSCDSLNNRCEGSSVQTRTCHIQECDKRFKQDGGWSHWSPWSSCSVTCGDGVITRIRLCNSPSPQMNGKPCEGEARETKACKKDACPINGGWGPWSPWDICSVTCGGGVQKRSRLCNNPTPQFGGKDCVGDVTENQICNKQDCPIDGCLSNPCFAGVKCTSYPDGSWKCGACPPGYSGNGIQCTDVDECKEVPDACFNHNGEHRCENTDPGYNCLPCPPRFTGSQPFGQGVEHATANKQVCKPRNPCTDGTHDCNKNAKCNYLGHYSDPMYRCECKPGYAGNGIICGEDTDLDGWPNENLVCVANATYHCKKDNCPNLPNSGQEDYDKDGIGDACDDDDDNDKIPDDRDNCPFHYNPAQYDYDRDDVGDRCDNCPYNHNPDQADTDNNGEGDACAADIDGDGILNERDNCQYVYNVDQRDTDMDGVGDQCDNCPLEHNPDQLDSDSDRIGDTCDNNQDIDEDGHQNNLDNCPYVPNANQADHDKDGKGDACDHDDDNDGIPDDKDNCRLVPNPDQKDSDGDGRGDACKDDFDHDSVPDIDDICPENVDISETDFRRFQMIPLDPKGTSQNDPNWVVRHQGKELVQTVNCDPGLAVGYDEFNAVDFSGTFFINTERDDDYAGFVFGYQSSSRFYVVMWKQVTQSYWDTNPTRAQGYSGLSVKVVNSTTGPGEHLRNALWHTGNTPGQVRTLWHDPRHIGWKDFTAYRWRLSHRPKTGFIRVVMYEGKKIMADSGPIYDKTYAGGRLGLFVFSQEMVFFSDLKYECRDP
Experimental: This study examines the amino terminal (Met1-Lys132) and carboxy terminal (IIe248-Lys380) portions of angiocidin (SEQ ID NOS: 24 and 25, respectively). The binding of undenatured recombinant angiocidin fragments was compared to full length angiocidin. GST was used as a negative control. Binding was evaluated using an optical binding method that uses a cuvette to which TSP-1 is covalently coupled. A laser beam was used to detect whether the test protein (fragments, angiocidin, or GST) is bound to the TSP-1 derivatized cuvette surface. The cuvette was derivatized with 1 μg of TSP-1. The cuvette surfaces were blocked with a 1% BSA solution to prevent nonspecific binding. The test proteins were added at a concentration of […] in a PBS buffer.

[3] = system: Bovine aortic endothelial cells (BAEC); assay: ALAMAR BLUE cell viability assay; assay type: cell-based; conditions: for cell viability, angiocidin and fragments: Example 27, FIG. 34
Experimental: Bovine aortic endothelial cells (BAEC), human umbilical vein endothelial cells (HUVEC), fibroblast cells, A549 human lung carcinoma cells (A549), MDA-MB231 human breast carcinoma cells (MB231), MCF7 human breast carcinoma cells (MCF7) were treated with 37 μg/ml of receptor, or buffer alone, for 24 hours. Viability of the cells was measured using the ALAMAR BLUE™ assay, which measures the capacity of cells to metabolize the ALAMAR BLUE™ dye. The ALAMAR BLUE™ assay (available from Biosource International, Camarillo, Calif.) quantitatively measures the proliferation of cell lines and can establish the relative cytotoxicity of chemical agents. The assay incorporates a fluorometric/colorimetric growth indicator based on detection of metabolic activity. The system incorporates an oxidation-reduction (redox) indicator that both fluoresces and changes color in response to chemical reduction of growth medium resulting from cell growth. This causes the redox indicator to change from its oxidized, non-fluorescent, blue form to its reduced, fluorescent, red form. Data can be collected using either fluorescence-based instrumentation (530-560 nm excitation wavelength and 590 nm emission wavelength) or absorbance-based instrumentation (570 nm and 600 nm).
BAEC and BSM cells were treated with increasing concentrations of angiocidin (0, 0.625, 1.25, 2.5, 5, 15, 26 and 37 μg/ml) for 24 hours. Cell viability was measured using the ALAMAR BLUE Tm assay. […] In contrast, BSM cells are unaffected.
The methods of Example 21 were followed, except BAEC cells were used. Additionally, TSP-1 was added at both 20 μg/ml and 5 μg/ml.
As discussed in Example 19 above, angiocidin was added to BAEC cells. Fragments of angiocidin were added as well. […] GST was used as a negative control. V36-R42, the active site of the antisecretory factor, had no effect, illustrating that angiocidin plays a different role from antisecretory factor.
Bovine aortic endothelial cells (BAEC) were cultured overnight in serum-free media containing either 37 μg/ml his-tagged angiocidin or his-tagged GST. Both angiocidin and GST were expressed in bacteria transformed with the pTrcHisA expression vector and purified on nickel affinity chromatography under non-denaturing conditions. Viability was measured by the ALAMAR BLUE™ assay.
This study examined the effect of anti-angiocidin antibody on angiocidin-mediated inhibition of BAEC viability. BAEC were cultured overnight in serum-free media containing either 5 μg/ml angiocidin, 5 μg/ml angiocidin plus 100 μg/ml control IgG, or 5 μg/ml angiocidin plus 100 μg/ml anti-angiocidin IgG. Viability was measured using the ALAMAR BLUE™ assay, described above.
The endothelial cells (BAEC) were incubated overnight 37 μg/ml of the angiocidin, fragments, and GST. Viability was measured using the ALAMAR BLUE™ assay.

TSP-1 [4] = biological target: T2, TSP-1; assay: Affinity Sensor System (resonant mirror biosensor): binding to TSP-1 coupled to cuvette; conditions: peptide alone, TSP-1 immobilized in cuvette
Experimental: (§1) Binding of undenatured (in the ligand blot protocol above, the receptor is denatured by SDS) recombinant receptor to TSP-1 was evaluated using the Affinity Sensor System, Cambridge, UK. This is an optical binding method that uses a cuvette to which either ligand or receptor is covalently coupled. A laser beam is used to detect bound proteins to the protein-derivatized cuvette surface. This method is highly sensitive and measures both the association and dissociation rate constants for ligand receptor interactions. The instrument assumes that one molecule of receptor binds one molecule of TSP-1 and calculates the dissociation constant (KD) according to the following relationships:
1) kass[R][TSP-1]=kdiss[R-TSP-1] at equilibrium, where kass is the second order rate constant for association and kdiss is the first order rate constant for dissociation
2) KD=[R][TSP-1]/[R-TSP-1]=kdiss/kass
3) [R-TSP-1]t=[R-TSP-1]eq[1-exp(-kont)], where the instrument response measure in arc seconds is proportional to receptor-TSP-1 complex R-TSP-1].
4) kon=kass[L]+kdiss where kon is the pseudo-first order rate constant for receptor TSP-1 interaction.
(§2) About 1 μg of TSP-1 was coupled to the cuvette through its amino groups to COOH groups on the cuvette surface. Unreacted groups on the cuvette surface were then blocked with ethanolamine and albumin. […] A dissociation constant of […] was calculated from a plot of the pseudo first order rate constant for association versus the concentration of the receptor, as shown in FIG. 7. Instrument response vs time readings shown in FIG. 8, where the instrument response is proportional to the concentration of receptor-TSP-1 complex, were used to plot the data points on FIG. 7.
(§3) […] The peptides used were Val-Cys-His-Ser-Lys-Thr-Arg (SEQ ID NO: 8), Val-Cys(Acm)-His-Ser-Lys-Thr-Arg (SEQ ID NO: 9), and Pro-His-Ser-Arg-Asn (SEQ ID NO: 10). The first two peptides are derived from the binding portion of the receptor, where it interacts with the Cys-Ser-Val-Thr-Cys-Gly (SEQ ID NO: 1) portion of the TSP-1 protein. The third peptide is a control.

B16-F10 Melanoma Cells = assay: Cell adhesion to immobilized receptor peptides; assay type: cell-based, mouse; conditions: Example 12, FIG. 14
Experimental: For the adhesion assay, in a 96 well plate, duplicate wells were covered with either TSP-1 (40 μg/ml), fibronectin (40 μg/ml), or and 1% bovine serum albumin (BSA). The wells were dried out overnight and then blocked with BSA. 100 μl of a suspension containing 2×10^5 cells were plated in the protein covered wells and incubated at 37^□ C. for 20 minutes to 1 hour. The non-adherent cells were removed and the wells were washed with a Hepes buffer. The adherent cells were fixed with 2.5% glutaraldehyde for 10 minutes and stained with 0.2% Giemsa. The stain was washed off and the cells were counted in a field of 1 mm square. Cells adhering to BSA were considered background while cells adhering to fibronectin were the positive control.
The method of Example 12 was followed except the receptor peptides Val-Cys-His-Ser-Lys-Thr-Arg (SEQ ID NO: 8) and Val-Cys(Acm)-His-Ser-Lys-Thr-Arg (SEQ ID NO: […]) were immobilized on the plates. TSP-1 and fibronectin were also immobilized on plates, as well as negative control peptides (Ala-Ser-Val-Thr-Ala-Arg (SEQ ID NO: 11) and Pro-His-Ser-Arg-Asn (SEQ ID NO: 10)) and bovine serum albumin. […] This provides support for the theory that another protein may be associated with TSP-1 and its receptor, or that the receptor is released and rebound to the membrane of the cell by another protein.

receptor-TSP-1 complex = biological target: T3, receptor-TSP-1 complex (Homo sapiens, UniProt P55036, INS254GER); assay: Affinity Sensor System: peptide competition of receptor binding to immobilized TSP-1; conditions: 10 fold molar excess of peptide
T3 construct: Full length cDNA cloned in the PBK-CMV vector was used as a template; 6xHis (pTrcHisA leader) (N); made in house; host or cells: bacteria (pTrcHisA vector)
T3 sequence (P55036 with tags, fused parts or gaps INS254GER): T1 sequence (P55036 with tags, fused parts or gaps INS254GER)
Experimental: as §1, §2, §3

Substance: Pro-His-Ser-Arg-Asn (PHSRN) [Pro-His-Ser-Arg-Asn (SEQ ID NO: 10), negative control peptide, reference compound]
direct binding to immobilized TSP-1 (TSP-1 [4]): did not

Substance: CSVTCG (cysteine pairing not given here) [Cys-Ser-Val-Thr-Cys-Gly (SEQ ID NO: 1), TSP-1 peptide]
competition of biotin-angiocidin binding to TSP-1 [1]: effectively competed with TSP-1 for the biotin-angiocidin complex
peptide competition of TSP-1 receptor binding [1]: effectively inhibited binding

Substance: KVWVLPI
peptide competition of TSP-1 receptor binding [1]: inhibited the binding

Substance: V36-R42: the active site of the antisecretory factor (VCHSKTR; UniProt P55036 36-42, looked up, fragment) [reference compound]
cell viability, angiocidin and fragments [3]: had no effect

Further lines, with some results ahead:

competition of biotin-angiocidin binding to TSP-1 [1]: had no effect
Substance: VCTGSC (cysteine pairing not given here) [Val-Cys-Thr-Gly-Ser-Cys (SEQ ID NO: 15), scrambled peptide, negative control]

binding to TSP-1 derivatized cuvette (TSP-1 [2]): show no binding activities
Substance: carboxy terminal fragment: carboxy terminal (IIe248-Lys380) portion of angiocidin (SEQ ID NO: 25)
anti-endothelial activity compared to angiocidin ([3]; 37 μg/ml, overnight): had activity levels similar to the negative control
cell viability, angiocidin and fragments [3]: did not affect cell viability

peptide competition of TSP-1 receptor binding [1]: inhibited binding
Substance: d-Gly-Cys(Acm)-Thr-Val-Ser-Cys(Acm) (GCTVSC; not fully specified (residues 2, 3, 4, 5, 6); printed as d-Gly-Cys(Acm)-Thr-Val-Ser-Cys(Acm); cysteine pairing not given here; also: d- prefix stated for the peptide (mirror image, D-orientation)) [mirror image acetylated peptide]

direct binding to immobilized TSP-1 (TSP-1 [4]): bind directly to the immobilized TSP-1
Substance: Val-Cys(Acm)-His-Ser-Lys-Thr-Arg (VC(Acm)HSKTR)
cell adhesion to immobilized peptide (B16-F10 Melanoma Cells): cause the cells to adhere to the plates, with similar affinity to the positive controls fibronectin and TSP-1

extent of receptor binding, % of buffer control (receptor-TSP-1 complex): 88%
Substance: Val-Cys(Acm)-Thr-Gly-Ser-Cys(Acm) (VC(Acm)TGSC(Acm)) [scrambled peptide]
